# Source: patent US20160008427A1 (Genentech, published 2016)
# Positions count from the first letter of the chain named. Numbers in names are those of the source.
# B1: IRL24 (receptor)
# CRIg variant: RPILEVPESVTGPWKGDVNLPCTYDPLQGYTQVLVKWLVQRDSHFVTIFLRDSSGDHIQIAKYRGRLHVSHKVPGDVSLQLSTLEMDDRSHYTCEVTWQTPDGNQVVRDKITELRVQKHSSKLLKTKTEAPTTMTYPLKATSTVKQSWDWTTDMDGYLGETSAGPGKSLP
# notes: the mutation string is cut off at the cell border on the sheet; also called Q60I/Q64R/G42D/D44H/P45F
# B2: IRL52 (receptor)
# CRIg variant: B1 CRIg variant with D42G, H44D, F45P, Q105K
# notes: also called Q60I-Q64R/Q105K
# B3: YL59 (receptor)
# CRIg variant: B1 CRIg variant with D42G, H44D, F45P, I60Q, R64Q, M86Y, Q105R, K110N
# notes: also called M86Y/Q105R/K110N
# B4: YL24 (receptor)
# CRIg variant: B1 CRIg variant with I60Q, R64Q, M86Y
# notes: also called M86Y/G42D/D44H/P45F
# B5: IRL55 or IRL56 (last digit not sure) (receptor)
# CRIg variant: B1 CRIg variant with D42G, H44D, F45P, K110N
# notes: row between IRL52 and IRL59; also called Q60I-Q64R/K110N
# B6: IRL51 (receptor)
# CRIg variant: B1 CRIg variant with D42G, H44D, F45P, Q105R
# notes: also called Q60I-Q64R/Q105R
# B7: IRL41 (receptor)
# CRIg variant: B1 CRIg variant with D42G, H44D, F45P, M86Y
# notes: also called RIL41; RIL 41
# B8: IRL11 (receptor)
# CRIg variant: RPILEVPYSVTGPWKGDVNLPCTYDPLQGYTQVLVKWLVQRGSDPVTIFLRDSSGDHIQIAKYRGRLHVSHKVPGDVSLQLSTLEMDDRSHYTCEVTWQTPDGNQVVRDKITELRVQKHSSKLLKTKTEAPTTMTYPLKATSTVKQSWDWTTDMDGYLGETSAGPGK
# notes: also called Q60I-Q64R/E8Y
# B9: IRL21 (receptor)
# CRIg variant: B8 CRIg variant with Y8E, G42D
# notes: also called Q60I-Q64R/G42D
# B10: IRL23 (receptor)
# CRIg variant: B8 CRIg variant with Y8E, P45F
# notes: also called Q60I-Q64R/P45F
# B11: RL59 (receptor)
# CRIg variant: B8 CRIg variant with Y8E, I60Q, Q105R, K110N
# notes: also called Q64R/Q105R/K110N
# B12: L24 (receptor)
# CRIg variant: B8 CRIg variant with Y8E, G42D, D44H, P45F, I60Q, R64Q
# notes: also called G42D/D44H/P45F (printed G42D/D44/H/P45F)
# What was measured:
# [1] = biological target: T1, C3b (human, UniProt P01024 23-667; P01024 749-1663); assay: competitive ELISA, column 'Mu Ic50 (nM)'; format of paragraph 183: variant in solution competes with coated huCRIg(L)-LFH for C3b
# T1 construct: also called soluble C3b; human C3b
# T1 sequence (P01024 23-667 limits assumed, chain 1 of 2): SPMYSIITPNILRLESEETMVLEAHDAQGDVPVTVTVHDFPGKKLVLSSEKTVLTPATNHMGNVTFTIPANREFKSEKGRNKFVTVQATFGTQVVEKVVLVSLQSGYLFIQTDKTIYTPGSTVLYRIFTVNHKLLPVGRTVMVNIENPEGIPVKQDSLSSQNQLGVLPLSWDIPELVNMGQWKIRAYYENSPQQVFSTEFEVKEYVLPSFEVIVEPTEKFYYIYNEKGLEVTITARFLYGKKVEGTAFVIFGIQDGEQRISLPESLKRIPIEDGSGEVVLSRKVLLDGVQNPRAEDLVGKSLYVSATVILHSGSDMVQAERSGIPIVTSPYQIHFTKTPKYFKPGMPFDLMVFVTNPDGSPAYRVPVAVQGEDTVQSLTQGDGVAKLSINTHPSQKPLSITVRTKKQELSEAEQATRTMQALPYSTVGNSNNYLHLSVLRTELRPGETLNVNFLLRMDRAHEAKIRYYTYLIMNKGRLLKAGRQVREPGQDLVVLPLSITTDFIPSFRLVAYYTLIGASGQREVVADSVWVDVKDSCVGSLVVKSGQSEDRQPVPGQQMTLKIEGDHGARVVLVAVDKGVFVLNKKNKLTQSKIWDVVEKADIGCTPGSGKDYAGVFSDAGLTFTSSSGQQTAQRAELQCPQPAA
# T1 sequence (P01024 749-1663 limits assumed, chain 2 of 2): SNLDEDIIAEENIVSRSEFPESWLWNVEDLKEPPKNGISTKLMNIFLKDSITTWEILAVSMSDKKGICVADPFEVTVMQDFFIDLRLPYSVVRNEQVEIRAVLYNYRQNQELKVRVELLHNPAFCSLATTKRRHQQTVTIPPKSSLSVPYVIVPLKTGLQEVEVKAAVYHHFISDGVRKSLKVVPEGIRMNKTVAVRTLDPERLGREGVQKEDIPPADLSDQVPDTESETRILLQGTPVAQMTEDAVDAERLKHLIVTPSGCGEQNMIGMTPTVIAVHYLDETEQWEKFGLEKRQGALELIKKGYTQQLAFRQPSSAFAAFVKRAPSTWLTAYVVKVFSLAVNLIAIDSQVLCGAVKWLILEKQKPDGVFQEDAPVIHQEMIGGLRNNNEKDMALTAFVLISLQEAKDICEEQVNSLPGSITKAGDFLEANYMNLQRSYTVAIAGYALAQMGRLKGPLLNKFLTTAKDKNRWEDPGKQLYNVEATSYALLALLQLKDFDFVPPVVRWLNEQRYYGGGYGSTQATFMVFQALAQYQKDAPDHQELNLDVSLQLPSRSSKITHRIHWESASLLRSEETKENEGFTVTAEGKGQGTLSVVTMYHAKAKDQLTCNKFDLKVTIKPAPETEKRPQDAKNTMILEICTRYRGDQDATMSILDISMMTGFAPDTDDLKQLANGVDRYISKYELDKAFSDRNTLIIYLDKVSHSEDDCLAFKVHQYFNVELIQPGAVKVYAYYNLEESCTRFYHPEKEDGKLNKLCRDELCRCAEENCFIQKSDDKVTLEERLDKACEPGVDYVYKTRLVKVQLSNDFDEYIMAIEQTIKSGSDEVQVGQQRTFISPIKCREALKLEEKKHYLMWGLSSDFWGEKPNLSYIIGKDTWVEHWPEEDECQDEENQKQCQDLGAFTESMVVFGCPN
# Experimental: (§1) huCRIg(L)-LFH was diluted to 2μg/mL in PBS, pH 7.4, and coated onto Maxisorp 384-well flat bottom plates (Nunc, Neptune, NJ) by incubating overnight (16-18 hr) at 4° C. (25 ul/well). The plates were washed 3 times in Wash Buffer (PBS, pH7.4, 0.05% Tween 20), and 50 ul/well of Block Buffer (PBS, pH 7.4, 0.5% BSA) was added to each well. The plates were allowed to block for 1-3hr; this and all subsequent incubations were performed on an orbital shaker at room temperature. During the blocking step, C3b (purified at Genentech) was diluted to 20 nM in Assay Buffer (PBS pH7.4, 0.5% BSA, 0.05% Tween-20), and the mutCRlg-huFc molecules were serially diluted in Assay Buffer, over a concentration range of 20,000—0.34 nM. The C3b and mutCRlg-huFc molecules were then mixed 1:1 and allowed to pre-incubate for 0.5-1 hr. The blocked plates were washed three times (as described above), and the C3b:mutCRlg-huFc complexes were added to the reaction plates (25 ul/well). After a 1-2 hr incubation, The ELISA plates were washed three times, (as described above) and plate-bound C3b was detected by the addition of an anti-human C3b antibody (clone 5F202, US Biological, Swampscott, Mass.; 600 ng/mL, 25 ul/well). The plates were incubated for 1-2 hr and washed as described above. HRP-conjugated anti-murine Fc IgG (Jackson ImmunoResearch, West Grove, Pa.) diluted 1:2,000 was then added (25 ul/well), and the plates were incubated for 1-2 hr. After a final wash, 25 ul/well of TMB substrate (Kirkegaard & Perry Laboratories, Gaithersburg, Md.) was added to the ELISA plates. Color development was stopped after approximately 8min by adding 25 ul/well 1.0M phosphoric acid. Absorbance at 450 nm and 650 nm was determined using a SpectraMax 250 microtiter plate reader (Molecular Devices, Sunnyvale, Calif.).
# [2] = biological target: T1, C3b; assay: competitive ELISA (competitive displacement of C3b); format of paragraph 183: variant in solution competes with coated huCRIg(L)-LFH for C3b
# Experimental: as §1, with “HRP-conjugated anti-murine Fc IgG (Jackson ImmunoResearch, West Grove, Pa.) diluted 1:2,000 was then added (25 ul/well), and the plates were incubated for 1-2 hr. After a final wash, 25 ul/well of TMB substrate (Kirkegaard & Perry Laboratories, Gaithersburg, Md.) was added to the ELISA plates. Color development was stopped after approximately 8min by adding 25 ul/well 1.0M phosphoric acid.” left out
Binder,IC50 [1] [nM],IC50 (read off the curve) [2] [nM]
B1,4,–
B2,22,–
B3,18,–
B4,31,–
B5,33,–
B6,24,–
B7,10,~10
B8,34,–
B9,29,–
B10,31,–
B11,65,–
B12,238,–
